Results published in PMC3115387 (Proteins, 2011).

Target: the molecule itself
Assay: native gel or EMSA

B1: Mitomycin-7-O-methyltransferase (MmcR), recombinant N-His6-MmcR (enzyme, Streptomyces lavendulae)
chain: MTVEQTPENPGTAARAAAEETVNDILQGAWKARAIHVAVELGVPELLQEGPRTATALAEATGAHEQTLRRLLRLLATVGVFDDLGHDDLFAQNALSAVLLPDPASPVATDARFQAAPWHWRAWEQLTHSVRTGEASFDVANGTSFWQLTHEDPKARELFNRAMGSVSLTEAGQVAAAYDFSGAATAVDIGGGRGSLMAAVLDAFPGLRGTLLERPPVAEEARELLTGRGLADRCEILPGDFFETIPDGADVYLIKHVLHDWDDDDVVRILRRIATAMKPDSRLLVIDNLIDERPAASTLFVDLLLLVLVGGAERSESEFAALLEKSGLRVERSLPCGAGPVRIVEIRRA
modifications: selenomethionine (SeMet-labeled protein used for the crystals)
- stoichiometry N: 2
